These results are taken from publication PMC2760576.

Assay [1] concerns the target integrin α6β1 (human (endogenous in FHCC98 and SMMC-7721)) (UniProt P05556).
For assay [2] the target is unchanged. This is another data set of the same source.
Assay [3] has the same target. This is another data set of the same source.
The target is the same in assay [4]. This is another data set of the same source.

Chain of UniProt P05556 (P05556 whole entry, looked up): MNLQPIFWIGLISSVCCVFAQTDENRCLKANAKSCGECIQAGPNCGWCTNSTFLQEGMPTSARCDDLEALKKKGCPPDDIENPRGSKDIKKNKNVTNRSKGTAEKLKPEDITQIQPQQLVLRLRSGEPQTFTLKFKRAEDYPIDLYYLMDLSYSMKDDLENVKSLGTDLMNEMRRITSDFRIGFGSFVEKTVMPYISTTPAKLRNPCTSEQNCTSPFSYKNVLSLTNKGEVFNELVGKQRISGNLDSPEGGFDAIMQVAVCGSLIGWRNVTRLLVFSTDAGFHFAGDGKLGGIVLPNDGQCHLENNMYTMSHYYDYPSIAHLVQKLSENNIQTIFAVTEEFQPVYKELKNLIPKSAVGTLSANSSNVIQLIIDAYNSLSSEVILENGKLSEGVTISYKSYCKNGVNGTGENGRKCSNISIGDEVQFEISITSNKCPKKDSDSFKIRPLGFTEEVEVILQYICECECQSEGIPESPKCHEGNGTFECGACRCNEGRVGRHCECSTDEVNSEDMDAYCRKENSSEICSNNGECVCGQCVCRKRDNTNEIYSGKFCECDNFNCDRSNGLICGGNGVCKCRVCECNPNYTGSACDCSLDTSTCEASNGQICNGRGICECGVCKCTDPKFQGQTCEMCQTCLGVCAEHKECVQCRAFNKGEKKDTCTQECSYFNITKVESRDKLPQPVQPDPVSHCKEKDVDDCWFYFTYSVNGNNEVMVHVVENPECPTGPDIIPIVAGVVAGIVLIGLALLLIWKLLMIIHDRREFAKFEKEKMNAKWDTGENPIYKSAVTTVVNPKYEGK

Consider “HAb18G/CD147 (from UniProt P35613 22-385) (natural protein)”, for which, in assay [1], the gelatin zymography, reduction of the density of MMPs of FHCC98 cells versus the blank group; sncRNA + GoH3 + 3S3 came to 29.1%; the gelatin zymography, reduction of the density of MMPs of FHCC98 cells versus the blank group; sncRNA + anti-α6 mAb GoH3 worked out at 32.5%; the gelatin zymography, reduction of the density of MMPs of FHCC98 cells versus the blank group; sncRNA + anti-β1 mAb 3S3 turned out to be 34.8%. In assay [2], this substance showed a Matrigel invasion of 7721 cells, reduction of invasive cell numbers versus the blank control group; anti-α6 mAb of 27.2%. In addition, in assay [3], the gelatin zymography, reduction of MMP density of 7721 cells versus the blank control group; anti-α6 mAb was 22.8% and the gelatin zymography, reduction of the density of MMPs of FHCC98 cells versus the blank control group; anti-α6 mAb came out at 18.8%. In addition, in assay [4], the Matrigel invasion of FHCC98 cells, reduction of invasive cell numbers versus the blank group; sncRNA + GoH3 + 3S3 came to 34.9%; the Matrigel invasion of FHCC98 cells, reduction of invasive cell numbers versus the blank group; sncRNA + anti-α6 mAb GoH3 is 32.4%; the Matrigel invasion of FHCC98 cells, reduction of invasive cell numbers versus the blank group; sncRNA + anti-β1 mAb 3S3 amounted to 31.1%.
